Results published in paper PMC7364221.

Target: T1, ClbR (Escherichia coli Nissle 1917) (UniProt Q0P7J1)
T1 sequence: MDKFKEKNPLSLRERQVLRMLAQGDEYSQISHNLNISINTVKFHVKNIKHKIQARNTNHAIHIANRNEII
Test: EMSA
Details: pH and temperature not stated

Sequence	binding
GAGATTTTCCATGTAATAAGATGGACACGCGTAAGCAGTTACCGCTAACACCAAGTCAACAGGGGTTTTTATTCCATTCCTTAAAGGATAAGAAAAGGAGTAACTACCATGAGCA (double strand) [probe 8 (clbB upstream, 115 bp)]	no binding
TGCGGATAGGTGTGCCATTTAGAATAATCATGTTAAATAATCTATAAATCCGATAATAAGGTGATGGTTATGGATAATACCTCTGGAGATTTTCCATGTAATAAGATGGACACGCGTAAGCAGTTACCGCTAACACCAAGTCAACAGGGGTTTTTATTCCATTCCTTAAAGGATAAGAAAAGGAGTAACTACCATGAGCA (double strand) [probe 11 (clbB upstream, 200 bp)]	no binding
TGCTCATGGTAGTTACTCCTTTTCTTATCCTTTAAGGAATGGAATAAAAACCCCTGTTGACTTGGTGTTAGCGGTAACTGCTTACGCGTGTCCATCTTATTACATGGAAAATCTCCAGAGGTATTATCCATAACCATCACCTTATTATCGGATTTATAGATTATTTAACATGATTATTCTAAATGG (double strand) [probe 12 (clbB upstream, 186 bp)]	no binding
TGCTCATGGTAGTTACTCCTTTTCTTATCCTTTAAGGAATGGAATAAAAACCCCTGTTGACTTGGTGTTAGCGGTAACTGCTTACGCGTGTCCATCTTATTACATGGAAAATCTCCAGAGGTATTATCCATAACCATCACCTTATTATCGGATTTATAGATTATTTAACAT (double strand) [probe 7 (clbB upstream, 171 bp)]	no binding
CCAGTCACGACGTTGTAATACGACGGCCAGAGAATCCGTAATCATAGTCATAGCTGTATCCTGTGTGAAATTGTTATCCGCTCATAATTTCACACAACATACGAGCCGGACACATAGAGTGTAAAGACTGGGGTGCCTAATGAGTGAGCTGACTCACATTAATTGTGTTGCGCTCACTGCCCGCTTTCCAGTCGGGAAACTTGTCGTGCCAGCTGCATTAATGAATCGG (double strand) [lacZ promoter probe (229 bp)]	no binding
